Molecular target: T1, CD54 (ICAM-1) (UniProt P05362 28-480, limits assumed)
T1 construct: Amine-coupled to a CM5 chip for SPR
Test: ELISA, CD11a A domain on ICAM-1

T1 sequence (P05362 28-480 limits assumed): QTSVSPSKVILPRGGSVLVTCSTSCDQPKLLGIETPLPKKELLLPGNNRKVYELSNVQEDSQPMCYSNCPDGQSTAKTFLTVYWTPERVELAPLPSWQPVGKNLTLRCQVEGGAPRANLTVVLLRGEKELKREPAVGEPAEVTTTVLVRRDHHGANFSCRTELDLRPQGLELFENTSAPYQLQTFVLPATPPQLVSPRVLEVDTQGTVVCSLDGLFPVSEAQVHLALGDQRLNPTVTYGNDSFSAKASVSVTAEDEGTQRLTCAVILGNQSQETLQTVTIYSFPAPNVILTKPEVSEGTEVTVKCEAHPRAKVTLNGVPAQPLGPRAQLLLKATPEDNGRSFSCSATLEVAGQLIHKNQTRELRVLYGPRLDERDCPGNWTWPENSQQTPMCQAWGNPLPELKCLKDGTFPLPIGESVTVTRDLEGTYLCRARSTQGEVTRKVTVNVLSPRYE

B1: wild-type CD11a A domain (receptor, human, UniProt P20701 150-333, looked up)
chain: CIKGNVDLVFLFDGSMSLQPDEFQKILDFMKDVMKKLSNTSYQFAAVQFSTSYKTEFDFSDYVKRKDPDALLKHVKHMLLLTNTFGAINYVATEVFREELGARPDATKVLIIITDGEATDSGNIDAAKDIIRYIIGIGKHFQTKESQETLHKFASKPASEFVKILDTFEKLKDLFTELQKKIYV
notes: domain: A domain; also called wild-type protein without this substitution
binding result: no binding

— patent US20030109691A1 (GENERAL HOSPITAL, published 2003)
